Assay results: the FLAb antibody collection (doi:10.7554/elife.23156)

B1: scFv; the commonest letter at each place (parent)
chain 1: EVKLDETGGGLVQPGRPMKLSCVASGFTFSDYWMNWVRQSPEKGLEWVAQIRNKPYNYETYYSDSVKGRFTISRDDSKSSVYLQMNNLRVEDMGIYYCTGSYYGMDYWGQGTSVTVS
chain 2: DVVMTQTPLSLPVSLGDQASISCRSSQSLVHSNGNTYLRWYLQKPGQSPKVLIYKVSNRFSGVPDRFSGSGSGTDFTLKISRVEAEDLGVYFCSQSTHVPWTFGGGTKLEIK

Legend:
fluorescein = variants of: B1; assay: Kd (Tite-Seq); settings: with fluorescein; format: scFv 4-4-20, heavy + light
[1] = variants of: B1; assay: yeast surface expression (ratio to wild type); higher = more expressed; settings: format: scFv 4-4-20, heavy + light

| Variant | Kd (fluorescein) [µM] | yeast surface expression [1] |
| --- | --- | --- |
| chain 1 S101G D106A | 0.0457 | 0.675 |
| chain 1 M105K D106E | 3.2 | 1.01 |
| chain 1 D31Y V37Q | 0.0592 | 1.38 |
| chain 1 T28H V37L | 3.43 | 0.691 |
| chain 1 M105Y D106A | ≥ 10 | 0.432 |
| chain 1 D31Q V37P | 0.00827 | 0.0981 |
| chain 1 S30M N35M | ≥ 10 | 0.654 |
| chain 1 F29W M34W | ≥ 10 | 0.913 |
| chain 1 M105L G109C | ≥ 10 | 0.26 |
| chain 1 G104T D106Y | ≥ 10 | 0.331 |
| chain 1 F29G | ≥ 10 | 0.925 |
| chain 1 S101F G109S | ≥ 10 | 0.424 |
| chain 1 M34R N35M | ≥ 10 | 1.25 |
| chain 1 T28N V37Y | ≥ 10 | 1.05 |
| chain 1 M105L Y107I | 2.34 | 1.09 |
| chain 1 S101W G109V | ≥ 10 | 0.224 |
| chain 1 T28A F29K | ≥ 10 | 0.821 |
| chain 1 S30E N35E | ≥ 10 | 0.894 |
| chain 1 T28K W33M | ≥ 10 | 1.03 |
| chain 1 G104M | ≥ 10 | 0.571 |
| chain 1 M105R Y107G | ≥ 10 | 0.615 |
| chain 1 S30R V37M | ≤ 0.000316 | 1.02 |
| chain 1 M34F W36Y | 0.00468 | 0.948 |
| chain 1 F29A M34R | ≥ 10 | 1.01 |

| Variant | Kd (fluorescein) [µM] | yeast surface expression [1] |
| --- | --- | --- |
| chain 1 G100D W108R | ≥ 10 | 0.146 |
| chain 1 T28S S30T W33R | ≥ 10 | 0.708 |
| chain 1 D106T Y107V | 5.37 | 0.829 |
| chain 1 G104S Y107K | ≥ 10 | 0.796 |
| chain 1 S101D W108Y | ≥ 10 | 0.608 |
| chain 1 G104N G109Y | ≥ 10 | 0.305 |
| chain 1 S30A M34L | 0.00115 | 1.1 |
| chain 1 S101W Y107T | ≥ 10 | 0.42 |
| chain 1 M105D W108S | ≥ 10 | 0.458 |
| chain 1 T28W S30G Y32K | 1.55 | 0.576 |
| chain 1 T28N M34E V37L | ≥ 10 | 0.571 |
| chain 1 F29G D31Y | ≥ 10 | 0.708 |
| chain 1 F29Y Y32H | 0.205 | 0.756 |
| chain 1 N35I W36N | ≥ 10 | 0.743 |
| chain 1 F29T Y32S W33H | ≥ 10 | 0.659 |
| chain 1 S30N W33M | ≥ 10 | 0.879 |
| chain 1 M34L N35P | ≥ 10 | 1.48 |
| chain 1 D31T W33L | ≥ 10 | 0.518 |
| chain 1 D31K W36T | ≥ 10 | 0.343 |
| chain 1 T28N N35T | ≥ 10 | 0.93 |
| chain 1 S30Y Y32P | ≥ 10 | 0.691 |
| chain 1 M105V W108C | 6.61 | 0.461 |
| chain 1 D31V Y32L | 0.972 | 0.584 |
| chain 1 S30P N35L | ≥ 10 | 0.652 |

| Variant | Kd (fluorescein) [µM] | yeast surface expression [1] |
| --- | --- | --- |
| chain 1 S30P N35V | ≥ 10 | 0.636 |
| chain 1 G100H S101H | ≥ 10 | 0.273 |
| chain 1 S101M Y103A | ≥ 10 | 0.658 |
| chain 1 G100N Y102D G109M | ≥ 10 | 0.159 |
| chain 1 S101E M105V D106P | ≥ 10 | 0.387 |
| chain 1 M105F D106L | ≥ 10 | 0.356 |
| chain 1 G100F Y102D | ≥ 10 | 0.974 |
| chain 1 D106E | 0.0221 | 1.1 |
| chain 1 M105W W108V | 0.000454 | 0.756 |
| chain 1 S101A G104N | ≥ 10 | 0.72 |
| chain 1 S30M | 0.00175 | 0.855 |
| chain 1 G104C M105P | ≥ 10 | 0.256 |
| chain 1 N35R W36R | ≥ 10 | 0.425 |
| chain 1 T28F N35C | ≥ 10 | 0.644 |
| chain 1 S101G | ≥ 10 | 0.901 |
| chain 1 S101A | 0.000724 | 0.836 |
| chain 1 T28P V37S | 0.000939 | 0.884 |
| chain 1 S101F G104Q | ≥ 10 | 0.241 |
| chain 1 G100V Y103F | 0.876 | 0.679 |
| chain 1 G100L S101K | ≥ 10 | 0.461 |
| chain 1 T28S W33S | ≥ 10 | 0.919 |
| chain 1 G100Y M105S | ≥ 10 | 0.377 |
| chain 1 M34V V37D | 3.74 | 0.584 |
| chain 1 M34V V37K | ≥ 10 | 0.747 |

The next lines start with results.

| Kd (fluorescein) [µM] | Variant | yeast surface expression [1] |
| --- | --- | --- |
| ≥ 10 | chain 1 W33E | 1.05 |
| ≥ 10 | chain 1 W33D | 0.986 |
| ≥ 10 | chain 1 W33H | 0.765 |
| ≥ 10 | chain 1 W36H | 0.522 |
| ≥ 10 | chain 1 W36P | 0.871 |
| 1.33 | chain 1 W36I | 0.756 |
| ≥ 10 | chain 1 W33Y N35R | 0.524 |
| ≥ 10 | chain 1 Y103L W108D | 0.501 |
| ≥ 10 | chain 1 W108Q G109E | 0.459 |
| ≥ 10 | chain 1 W33T N35Q | 0.887 |
| 0.000604 | chain 1 Y102D W108M | 0.926 |
| ≥ 10 | chain 1 Y102Q G104T | 0.546 |
| ≥ 10 | chain 1 W33Q N35Y | 0.315 |
| 0.0146 | chain 1 Y103F Y107V | 0.817 |
| ≥ 10 | chain 1 Y102M D106A W108A | 0.612 |
| ≥ 10 | chain 1 Y103V G104W | 0.419 |
| 0.122 | chain 1 Y107V | 1.15 |
| ≥ 10 | chain 1 Y32V M34Q | 0.849 |
| ≥ 10 | chain 1 W33K W36Y | 0.396 |
| ≥ 10 | chain 1 Y103G M105N | 1.46 |
| ≥ 10 | chain 1 W33E N35C | 0.797 |
| ≥ 10 | chain 1 Y32E | 0.927 |

| Kd (fluorescein) [µM] | Variant | yeast surface expression [1] |
| --- | --- | --- |
| 0.923 | chain 1 Y102K Y107R | 0.991 |
| ≥ 10 | chain 1 W108K G109L | 0.219 |
| ≥ 10 | chain 1 Y102H D106Q | 0.937 |
| ≥ 10 | chain 1 W33N W36R | 0.764 |
| 0.00309 | chain 1 Y102F | 0.776 |
| 0.071 | chain 1 V37G | 0.58 |
| 0.129 | chain 1 V37Y | 1.04 |
| ≥ 10 | chain 1 V37E | 0.597 |
| ≥ 10 | chain 1 Y107G W108A | 0.528 |
| ≥ 10 | chain 1 Y103H Y107I | 1.25 |
| ≥ 10 | chain 1 Y102S G109Y | 0.248 |
| 3.04 | chain 1 Y102L D106E | 1.26 |
| ≥ 10 | chain 1 Y102L D106G | 0.569 |
| ≥ 10 | chain 1 Y103V G109L | 0.247 |
| 0.0038 | chain 1 Y102S M105N | 1.31 |
| 0.0245 | chain 1 Y102T Y103C | 0.784 |
| 0.00785 | chain 1 Y102T Y103W | 0.819 |
| 0.00468 | chain 1 W108H | 0.333 |
| ≤ 0.000316 | chain 1 W108M | 1 |
| ≥ 10 | chain 1 Y32D W33E | 0.525 |
| ≥ 10 | chain 1 Y32D W33V | 0.594 |
